Source: FireProtDB (doi:10.1038/342296a0)

B1: Ribonuclease, P00648 (parent)
chain: MMKMEGIALKKRLSWISVCLLVLVSAAGMLFSTAAKTETSSHKAHTEAQVINTFDGVADYLQTYHKLPDNYITKSEAQALGWVASKGNLADVAPGKSIGGDIFSNREGKLPGKSGRTWREADINYTSGFRNSDRILYSSDWLIYKTTDHYQTFTKIR

Variants of: B1
Conditions: Bacillus amyloliquefaciens; pH 6.3; 25 °C; Urea; Fluorescence; MES 19.3 mM; reversible: yes; structure 1BNI; whole UniProt chain shown

Variant | ddG of mutation (higher = less stable)
MMKMEGIALKKRLSWISVCLLVLVSAAGMLFSTAAKTETSSHKAHTEAQVINTFDGVADYLQTYHKLPDNYIAKSEAQALGWVASKGNLADVAPGKSIGGDIFSNREGKLPGKSGRTWREADINYTSGFRNSDRILYSSDWLIYKTTDHYQTFTKIR [T73A] | 2.11 kcal/mol
MMKMEGIALKKRLSWISVCLLVLVSAAGMLFSTAAKTETSSHKAHTEAQVINTFDGVADYLQTYHKLPDNYIVKSEAQALGWVASKGNLADVAPGKSIGGDIFSNREGKLPGKSGRTWREADINYTSGFRNSDRILYSSDWLIYKTTDHYQTFTKIR [T73V] | 2.31 kcal/mol
MMKMEGIALKKRLSWISVCLLVLVSAAGMLFSTAAKTETSSHKAHTEAQVINTFDGVADYLQTYHKLPDNYIEKSEAQALGWVASKGNLADVAPGKSIGGDIFSNREGKLPGKSGRTWREADINYTSGFRNSDRILYSSDWLIYKTTDHYQTFTKIR [T73E] | 0.05 kcal/mol
MMKMEGIALKKRLSWISVCLLVLVSAAGMLFSTAAKTETSSHKAHTEAQVINTFDGVADYLQTYHKLPDNYINKSEAQALGWVASKGNLADVAPGKSIGGDIFSNREGKLPGKSGRTWREADINYTSGFRNSDRILYSSDWLIYKTTDHYQTFTKIR [T73N] | 1.29 kcal/mol
MMKMEGIALKKRLSWISVCLLVLVSAAGMLFSTAAKTETSSHKAHTEAQVINTFDGVADYLQTYHKLPDNYIGKSEAQALGWVASKGNLADVAPGKSIGGDIFSNREGKLPGKSGRTWREADINYTSGFRNSDRILYSSDWLIYKTTDHYQTFTKIR [T73G] | 1.58 kcal/mol
MMKMEGIALKKRLSWISVCLLVLVSAAGMLFSTAAKTETSSHKAHTEAQVINTFDGVADYLQTYHKLPDNYIQKSEAQALGWVASKGNLADVAPGKSIGGDIFSNREGKLPGKSGRTWREADINYTSGFRNSDRILYSSDWLIYKTTDHYQTFTKIR [T73Q] | 1.72 kcal/mol
MMKMEGIALKKRLSWISVCLLVLVSAAGMLFSTAAKTETSSHKAHTEAQVINAFDGVADYLQTYHKLPDNYITKSEAQALGWVASKGNLADVAPGKSIGGDIFSNREGKLPGKSGRTWREADINYTSGFRNSDRILYSSDWLIYKTTDHYQTFTKIR [T53A] | 2.53 kcal/mol
MMKMEGIALKKRLSWISVCLLVLVSAAGMLFSTAAKTETSSHKAHTEAQVINQFDGVADYLQTYHKLPDNYITKSEAQALGWVASKGNLADVAPGKSIGGDIFSNREGKLPGKSGRTWREADINYTSGFRNSDRILYSSDWLIYKTTDHYQTFTKIR [T53Q] | 1.87 kcal/mol
MMKMEGIALKKRLSWISVCLLVLVSAAGMLFSTAAKTETSSHKAHTEAQVINEFDGVADYLQTYHKLPDNYITKSEAQALGWVASKGNLADVAPGKSIGGDIFSNREGKLPGKSGRTWREADINYTSGFRNSDRILYSSDWLIYKTTDHYQTFTKIR [T53E] | 0.27 kcal/mol
MMKMEGIALKKRLSWISVCLLVLVSAAGMLFSTAAKTETSSHKAHTEAQVINSFDGVADYLQTYHKLPDNYITKSEAQALGWVASKGNLADVAPGKSIGGDIFSNREGKLPGKSGRTWREADINYTSGFRNSDRILYSSDWLIYKTTDHYQTFTKIR [T53S] | 0.22 kcal/mol
MMKMEGIALKKRLSWISVCLLVLVSAAGMLFSTAAKTETSSHKAHTEAQVINDFDGVADYLQTYHKLPDNYITKSEAQALGWVASKGNLADVAPGKSIGGDIFSNREGKLPGKSGRTWREADINYTSGFRNSDRILYSSDWLIYKTTDHYQTFTKIR [T53D] | -0.11 kcal/mol
MMKMEGIALKKRLSWISVCLLVLVSAAGMLFSTAAKTETSSHKAHTEAQVINNFDGVADYLQTYHKLPDNYITKSEAQALGWVASKGNLADVAPGKSIGGDIFSNREGKLPGKSGRTWREADINYTSGFRNSDRILYSSDWLIYKTTDHYQTFTKIR [T53N] | 1.27 kcal/mol
MMKMEGIALKKRLSWISVCLLVLVSAAGMLFSTAAKTETSSHKAHTEAQVINGFDGVADYLQTYHKLPDNYITKSEAQALGWVASKGNLADVAPGKSIGGDIFSNREGKLPGKSGRTWREADINYTSGFRNSDRILYSSDWLIYKTTDHYQTFTKIR [T53G] | 1.34 kcal/mol
